Assay results published in the supplement of paper PMC11246515.
± gives the standard deviation of the averaged measurements.

Test: total protein half-life in vivo (active degradation + dilution); higher = more stable protein
[1] = E. coli NCM3722 delta-clpP delta-lon delta-hslV, growth: N-lim chemostat, doubling time 6 h
[2] = E. coli NCM3722 delta-clpP, growth: N-lim chemostat, doubling time 6 h
[3] = E. coli NCM3722 delta-hslV, growth: N-lim chemostat, doubling time 6 h
[4] = E. coli NCM3722 delta-smpB, growth: N-lim chemostat, doubling time 6 h
[5] = wild type E. coli NCM3722, growth: C-lim chemostat, doubling time 3 h
[6] = wild type E. coli NCM3722, growth: C-lim chemostat, doubling time 6 h
[7] = wild type E. coli NCM3722, growth: C-lim chemostat, doubling time 12 h
[8] = wild type E. coli NCM3722, growth: N-lim chemostat, doubling time 6 h
[9] = wild type E. coli NCM3722, growth: N-lim chemostat, doubling time 12 h
[10] = wild type E. coli NCM3722, growth: P-lim chemostat, doubling time 12 h
[11] = wild type E. coli NCM3722, growth: P-lim chemostat, doubling time 6 h
[12] = E. coli NCM3722 delta-lon, growth: N-lim chemostat, doubling time 6 h

Sequence | total protein half-life in vivo [1] | total protein half-life in vivo [2] | total protein half-life in vivo [3] | total protein half-life in vivo [4] | total protein half-life in vivo [5] | total protein half-life in vivo [6] | total protein half-life in vivo [7] | total protein half-life in vivo [8] | total protein half-life in vivo [9] | total protein half-life in vivo [10] | total protein half-life in vivo [11] | total protein half-life in vivo [12]
MKISDGNWLIQPGLNLIHPLQVFEVEQQDNEMVVYAAPRDVRERTWQLDTPLFTLRFFSPQEGIVGVRIEHFQGALNNGPHYPLNILQDVKVTIENTERYAEFKSGNLSARVSKGEFWSLDFLRNGERITGSQVKNNGYVQDTNNQRNYMFERLDLGVGETVYGLGERFTALVRNGQTVETWNRDGGTSTEQAYKNIPFYMTNRGYGVLVNHPQCVSFEVGSEKVSKVQFSVESEYLEYFVIDGPTPKAVLDRYTRFTGRPALPPAWSFGLWLTTSFTTNYDEATVNSFIDGMAERNLPLHVFHFDCFWMKAFQWCDFEWDPLTFPDPEGMIRRLKAKGLKICVWINPYIGQKSPVFKELQEKGYLLKRPDGSLWQWDKWQPGLAIYDFTNPDACKWYADKLKGLVAMGVDCFKTDFGERIPTDVQWFDGSDPQKMHNHYAYIYNELVWNVLKDTVGEEEAVLFARSASVGAQKFPVHWGGDCYANYESMAESLRGGLSIGLSGFGFWSHDIGGFENTAPAHVYKRWCAFGLLSSHSRLHGSKSYRVPWAYDDESCDVVRFFTQLKCRMMPYLYREAARANARGTPMMRAMMMEFPDDPACDYLDRQYMLGDNVMVAPVFTEAGDVQFYLPEGRWTHLWHNDELDGSRWHKQQHGFLSLPVYVRDNTLLALGNNDQRPDYVWHEGTAFHLFNLQDGHEAVCEVPAADGSVIFTLKAARTGNTITVTGAGEAKNWTLCLRNVVKVNGLQDGSQAESEQGLVVKPQGNALTITL | 5.8 h | 5.9 ± 0.59 h | 5.652 ± 0.053 h | 5.11 ± 0.41 h | 3.394 ± 0.019 h | 6.93 ± 0.64 h | 13 ± 0.71 h | 6.27 h | 12.7 ± 0.22 h | 11.5 ± 2.9 h | – | –
MKISPSLMCMDLLKFKEQIEFIDSHADYFHIDIMDGHFVPNLTLSPFFVSQVKKLATKPLDCHLMVTRPQDYIAQLARAGADFITLHPETINGQAFRLIDEIRRHDMKVGLILNPETPVEAMKYYIHKADKITVMTVDPGFAGQPFIPEMLDKLAELKAWREREGLEYEIEVDGSCNQATYEKLMAAGADVFIVGTSGLFNHAENIDEAWRIMTAQILAAKSEVQPHAKTA | – | – | – | – | 0.597 h | – | – | – | – | – | – | –
MKITLLVTLLFGLVFLTTVGAAERTLTPQQQRMTSCNQQATAQALKGDARKTYMSDCLKNSKSAPGEKSLTPQQQKMRECNNQATQQSLKGDDRNKFMSACLKKAA [P0AFM4] | 6.55 h | 5.82 ± 1.1 h | – | – | – | – | 6.86 ± 1.4 h | – | – | 12.8 ± 2.9 h | 5.5 ± 1.8 h | –
MKITLSKRIGLLAILLPCALALSTTVHAETNKLVIESGDSAQSRQHAAMEKEQWNDTRNLRQKVNKRTEKEWDKADAAFDNRDKCEQSANINAYWEPNTLRCLDRRTGRVITP | 6.01 ± 0.36 h | – | 4.407 ± 0.012 h | 4.06 ± 0.71 h | – | 5.07 ± 0.96 h | 7.11 ± 3.5 h | 4.93 ± 0.28 h | 11 ± 1.8 h | 12.4 ± 0.79 h | 5.78 ± 0.18 h | 5.55 ± 1.8 h
MKIVKAEVFVTCPGRNFVTLKITTEDGITGLGDATLNGRELSVASYLQDHLCPQLIGRDAHRIEDIWQFFYKGAYWRRGPVTMSAISAVDMALWDIKAKAANMPLYQLLGGASREGVMVYCHTTGHSIDEALDDYARHQELGFKAIRVQCGIPGMKTTYGMSKGKGLAYEPATKGQWPEEQLWSTEKYLDFMPKLFDAVRNKFGFNEHLLHDMHHRLTPIEAARFGKSIEDYRMFWMEDPTPAENQECFRLIRQHTVTPIAVGEVFNSIWDCKQLIEEQLIDYIRTTLTHAGGITGMRRIADFASLYQVRTGSHGPSDLSPVCMAAALHFDLWVPNFGVQEYMGYSEQMLEVFPHNWTFDNGYMHPGDKPGLGIEFDEKLAAKYPYEPAYLPVARLEDGTLWNW | 5.64 ± 0.3 h | – | – | – | 3.61 ± 0.2 h | 6.03 ± 0.18 h | 10.5 ± 1.8 h | – | – | > 16 h | 7.33 h | –
MKIYLVGGAVRDALLGLPVKDRDWVVVGSTPQEMLDAGYQQVGRDFPVFLHPQTHEEYALARTERKSGSGYTGFTCYAAPDVTLEDDLKRRDLTINALAQDDNGEIIDPYNGLGDLQNRLLRHVSPAFGEDPLRVLRVARFAARYAHLGFRIADETLALMREMTHAGELEHLTPERVWKETESALTTRNPQVFFQVLRDCGALRVLFPEIDALFGVPAPAKWHPEIDTGIHTLMTLSMAAMLSPQVDVRFATLCHDLGKGLTPPELWPRHHGHGPAGVKLVEQLCQRLRVPNEIRDLARLVAEFHDLIHTFPMLNPKTIVKLFDSIDAWRKPQRVEQLALTSEADVRGRTGFESADYPQGRWLREAWEVAQSVPTKAVVEAGFKGVEIREELTRRRIAAVASWKEQRCPKPE | 4.23 ± 0.88 h | 3.75 ± 0.11 h | 3.29 ± 0.057 h | 3.37 ± 0.045 h | 2.96 ± 0.27 h | 5.06 ± 0.79 h | 8.37 ± 0.69 h | 3.48 ± 0.28 h | 5.55 ± 0.2 h | 9.86 ± 0.35 h | 5.114 ± 0.016 h | 3.79 ± 0.16 h
MKKFAAVIAVMALCSAPVMAAEQGGFSGPSATQSQAGGFQGPNGSVTTVESAKSLRDDTWVTLRGNIVERISDDLYVFKDASGTINVDIDHKRWNGVTVTPKDTVEIQGEVDKDWNSVEIDVKQIRKVNP [P0ADU5] | 3.85 ± 0.19 h | 5.07 ± 0.71 h | 5.86 ± 0.11 h | 5.91 ± 0.28 h | 2.89 ± 0.69 h | 5.83 ± 0.75 h | 6.74 ± 1.2 h | 6.22 ± 0.79 h | 11.8 ± 0.34 h | 7.98 ± 1.5 h | 4.72 ± 0.64 h | 6.2 ± 0.35 h
